Kd data for two molecules are collected here from patent publication US20100003258A1 (AVEO PHARMACEUTICALS, published 2010).

The target of this experiment is T1, recombinant human FGFR3 IIIc Fc fusion protein (human, UniProt P22607 23-375).
T1 construct: Bought reagent; also called rhFGFR3 IIIc Fc; not shown: Fc fragment (removable by Factor Xa)
T1 sequence (looked up): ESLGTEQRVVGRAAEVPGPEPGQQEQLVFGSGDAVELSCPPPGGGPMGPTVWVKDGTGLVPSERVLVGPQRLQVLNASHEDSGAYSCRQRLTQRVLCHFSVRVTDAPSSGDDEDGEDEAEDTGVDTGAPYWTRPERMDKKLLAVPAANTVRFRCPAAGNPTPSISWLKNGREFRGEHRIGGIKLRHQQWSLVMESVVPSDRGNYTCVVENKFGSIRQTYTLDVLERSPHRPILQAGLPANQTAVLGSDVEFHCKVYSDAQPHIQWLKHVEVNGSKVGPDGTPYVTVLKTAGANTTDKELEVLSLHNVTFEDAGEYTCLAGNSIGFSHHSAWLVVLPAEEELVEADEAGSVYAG
In words: kinetic exclusion assay (KinExA), antibody and rhFGFR3 IIIc Fc in solution, room temperature. The method, then:
The binding affinities of monoclonal 15D8, chimeric 15D8, and humanized 15D8 antibodies for recombinant human FGFR3 IIIc Fc fusion protein was measured using a kinetic exclusion assay, KinExA® technology (Sapidyne Instruments, Inc.). First, beads were prepared for the purpose of detecting anti-FGFR3 antibody that is unbound to FGFR3 IIIc Fc. This was done by adding 1 ml recombinant human FGFR3IIIc Fc (R&D Systems, Inc.) 10 ug/ml in PBS to 200 mg polymethyl methacrylate (PMMA) hard beads. The suspension was mixed and rotated for two hours at room temperature. Next, the mixture was centrifuged and supernatant was discarded. The bead pellet was rinsed once with 1 ml BSA 10 mg/ml in PBS by incubation for 1 hour at room temperature with rotation. The beads were resuspended in 27 ml PBS with 0.02% NaN₃. Next, a fixed concentration of anti-FGFR3 antibody (0.5 nM) was incubated in solution with a series of FGFR3 IIIc Fc concentrations (started with 50 nM (in PBS BSA (1 mg/ml)) and serially diluted 1:2 in PBS BSA(1 mg/ml) to obtain 50 to 0.0122 nM FGFR3 III Fc) at room temperature for at least 4 hours to allow equilibrium to be reached. By measuring the amount of anti-FGFR3 antibody that is not bound to FGFR3 IIIc Fc, the KD was determined. Unbound anti-FGFR3 antibody was detected by allowing the anti-FGFR3 antibody/FGFR3 IIIc Fc solution to flow through the FGFR3 IIIc Fc PMMA beads. The anti-FGFR3 antibody captured by these beads was then detected with Cy5-conjugated anti-human secondary antibody 0.3 ug/ml (Jackson ImmunoResearch) or Cy5-conjugated anti-mouse secondary antibody (Jackson ImmunoResearch) 0.5 ug/ml in PBS BSA 1 mg/ml. The detected signal for captured anti-FGFR3 antibody is directly proportional to the remaining free binding sites, thus allowing KD determination. The experiments were repeated, varying the concentrations of anti-FGFR3 antibody or FGFR3 III Fc used in solution, and the KD was calculated with the KinExA® software using n-curve analysis.

Usually Kd stands for a measure of binding affinity in units of concentration.

B1: Chimeric 15D8 (antibody, human IgG1, kappa)
heavy: not shown
light: QIVLTQSPALMSASPGEKVTMTCSASSSVSYMYWYQQKPRSSPKPWIYLTSYLASGVPARFSGSGSGTSYSLTISSMEAEDAATYYCQQWSSYPLTFGAGTKLELKRTVAAPSVFIFPPSDEQLKSGTASVVCLLNNFYPREAKVQWKVDNALQSGNSQESVTEQDSKDSTYSLSSTLTLSKADYEKHKVYACEVTHQGLSSPVTKSFNRGEC
notes: Mouse variable regions with human IgG1 and human kappa constant regions; made in 293T cells; also called chimeric 15D8 antibody
For B1, the Kd was found to be 0.0503 nM.

B2: Humanized 15D8 (antibody, human IgG1, kappa, V domains shown)
VH: EVQLVQSGAEVKKPGESLKISCKGSGYSFTSYNMYWVRQMPGKGLEWMGYIDPYNGGTSYNQKFKGKATLTVDKSISTAYLQWSSLKASDTAMYYCAREGGNYEAWFAYWGQGTLVTVSS
VL: DIQLTQSPSSLSASVGDRVTITCSASSSVSYMYWFQQKPGKAPKPLIYLTSYLASGVPSRFSGSGSGTDFTLTISSLQPEDFATYYCQQWSSYPLTFGGGTKVEIKR
notes: Humanized variable regions with human IgG1 and human kappa constant regions; made in 293T cells; also called Hu15D8; humanized 15D8 antibody
As to B2, the Kd is 0.0772 nM.
